# Target: T1, human SOD1^G93A (Zn/Cu superoxide dismutase, glycine to alanine at position 93) (human, UniProt P00441 1-154, G93A)
# T1 construct: Zn/Cu superoxide dismutase (SOD1), human, with the ALS-linked mutation G93A; The introduction calls SOD1 a 32 kDa homodimer; also called mutant SOD1^G93A; mutant SOD1; source: E. coli BL-21, grown without Zn2+ and Cu2+ supplements, purified to homogeneity under non-denaturing conditions
# Experiment: co-IP; purified SOD1^G93A (2 µg) incubated with recombinant D-DT (0.2, 0.5, 1, 2, 5 and 10 µg); immunoprecipitation overnight at 4 °C with B8H10 antibody (misfolded SOD1) crosslinked to protein G Dynabeads; IP buffer 0.05 M Tris pH 7.4, 0.4 M NaCl, 0.5% Nonidet P-40; bound and unbound fractions immunoblotted for SOD1 and D-DT
# Conditions: both partners purified
# T1 sequence (P00441 whole entry G94A): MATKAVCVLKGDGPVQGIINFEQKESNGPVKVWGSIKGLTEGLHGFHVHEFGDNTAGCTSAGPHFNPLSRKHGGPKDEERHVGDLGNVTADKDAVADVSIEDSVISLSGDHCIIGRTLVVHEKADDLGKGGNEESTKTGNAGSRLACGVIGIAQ
binder,measurement,value
"recombinant human D-dopachrome tautomerase (D-DT/MIF-2) (enzyme, D-dopachrome tautomerase (D-DT, MIF-2), human; also called recombinant D-DT; source: recombinant) PFLELDTNLPANRVPAGLEKRLCAAAASILGKPADRVNVTVRPGLAMALSGSTEPCAQLSISSIGVVGTAEDNRSHSAHFFEFLTKELALGQDRILIRFFPLESWQIGKIGTVMTFL",binding result,binds

# — article PMC9187739, “MIF homolog d-dopachrome tautomerase (D-DT/MIF-2) does not inhibit accumulation and toxicity of misfolded SOD1” (Scientific Reports, 2022)
